Laboratory results reported in US6080542A, “Plant peptide transport gene” (priority 1997, dated 2000).
Where a SMILES comes first, the peptide text is derived from it. Where no end group is shown, it is not given here. [ ]: non-standard residue; d: D form. hCys = N[C@@H](CCS)C(=O)O; Eth = ethionine

Legend:
[1] = tested on: A. thaliana seedlings; experiment: Root elongation of seedlings exposed to toxic peptides; assay type: in vivo, Arabidopsis thaliana
Experimental: (§1) Thus, A. thaliana seeds and seedlings were exposed to Ethionine, Ala-Eth, Leu-Eth, Leu-fluorophenylalanine or oxalysine containing peptides, and the minimum inhibitory concentrations (MIC) were determined for each of the toxic compounds.
Approximately 15 A. thaliana seeds were placed in a row at one end of 10 cm plate containing 20 ml of Arabidopsis growth media (Kranz and Kirchheim 1987). The seeds were incubated 3-5 days in the light with the plate set in an upright position. When the roots were approximately 1-2 cm long, sterile paper filter disks were placed immediately in front of the root tips on the right and left side of the plate 2 cm from the edge of the plate. A line was drawn across the plate using the top of the disks as a guide marking zero growth. 5 μl of toxic amino acid analog, toxic peptide, or toxic peptide plus competitor was added to one disk while H2 O was place on the other disk. The plates were incubated for an additional 3-5 days. The average length of the roots was measured from the line and the results expressed as a percentage of control root growth.

[2] = tested on: PB1X-9B(pJP2); experiment: Dipeptide utilization, L-alanyl-L-ethionine sensitivity and dileucine transport of secondary transformants; assay type: cell-based, Saccharomyces cerevisiae
Experimental: Plasmid pJP2 was then reintroduced into PB1X-9B. The resulting secondary yeast transformants were tested for the ability to use a variety of dipeptides as sources of amino acids and for sensitivity to the toxic dipeptide L-alanyl-L-ethionine. Thus, strains were grown in YEPG broth at 30° C. to a titer of 10^8 cells per ml. The cells were harvested by centrifugation, washed twice with sterile water and resuspended at 1.0×10^7 cells per ml. A 5-μl aliquot was applied to solid MM containing dipeptides and amino acids as required. Four types of solid media were routinely used in assessing dipeptide utilization: MM+L-leucyl-L-leucine-L-lysine+L-histidine, MM-L-lysI-L-lysine-L-leucine-L-histidine (SEQ ID NO:12), MM-L-lysl-L-leucine-L-histidine, and MM-L-histydyl-L-leucine-L-lysine. All dipeptides were present at a concentration of 80 μM, while amino acids and nucleotide bases were added as required at standard concentrations (Sherman, F. et al., In: Methods in Yeast Genetics, Cold Spring Harbor Laboratory, Clod Spring Harbor, N.Y. (1986)). The plates were incubated at 30° C. for 48 hours and then scored for growth.

[3] = tested on: PB1X-9B (pPTF4); experiment: Toxic peptide disk assay, mutant with plant gene ATPTR2A; assay type: cell-based, Saccharomyces cerevisiae
Experimental: (§2) Since ptr mutants are deficient in peptide transport, they are unable to take up toxic peptides. This inability renders such mutants resistant to the toxic effect of the peptides. In order to determine whether the polynucleotides of the present invention could restore toxic peptide sensitivity to ptr2 mutants, the sensitivity of plasmid-transformed cells was determined. Sensitivity to toxic amino acids and peptides was measured as described by Island, M. D. et al. (J. Bacteriol. 169:2132-2136 (1987)). Briefly, a filter disk containing 0.38 μmoles of the toxic compound was placed on a lawn containing 5×10^6 cells and the plate incubated at 30° C. for 1 to 2 days. Resulting halos were measured across their diameter. The toxic dipeptides Leu-Eth, Ala-Eth, Leu-F-Phe and Oxalysine were synthesized by standard solution phase techniques (Naider, F. et al., J. Biol. Chem. 249:9-20 (1974). The results of this experiment are shown in Table 2 (values are the mean of the diameters of the observed zone of inhibition in millimeters±standard error of the mean of at least two independent experiments).

[4] = tested on: S288C; experiment: Toxic peptide disk assay, wild type; assay type: cell-based, Saccharomyces cerevisiae; settings: disk with 0.38 μmoles, lawn of 5×10^6 cells, 30° C., 1 to 2 days, mean ± standard error
Experimental: as §2

[5] = tested on: PB1X-9B (pJP9); experiment: Toxic peptide disk assay, mutant with yeast peptide transport gene; assay type: cell-based, Saccharomyces cerevisiae; settings: disk with 0.38 μmoles, lawn of 5×10^6 cells, 30° C., 1 to 2 days, mean ± standard error
Experimental: as §2

[6] = tested on: A. thaliana seeds; experiment: Seed germination with toxic peptides (minimum inhibitory concentration); assay type: in vivo, Arabidopsis thaliana; settings: A. thaliana seeds
Experimental: as §1
To measure the minimum inhibitory concentration of the toxic peptides, 10 to 15 A. thaliara seeds were place on solid Arabidopsis growth media with decreasing concentrations of toxic peptide. The seeds were incubated for 4 days in the dark and then scored for germination.

[7] = target: Leu-Eth
[8] = target: L-alanyl-L-ethionine
[9] = target: T1, Lys-Leu-Leu-Ala-Eth; experiment: cell-based or functional assay
T1 peptide: KLLA-Eth

[10] = target: T2, Lys-Leu-Leu-Leu-Eth; experiment: cell-based or functional assay
T2 peptide: KLLL-Eth

[11] = target: Lys-Leu-Leu-Eth
[12] = target: Lys-Leu-Ala-Eth
[13] = target: Lys-Ala-Eth
[14] = target: Lys-Leu-Eth
[15] = target: Leu-Eth; remark: listed apart in the source
[16] = target: L-alanyl-L-ethionine; remark: listed apart in the source
[17] = target: Leu-F-Phe
[18] = target: T3, Ala-Ala; experiment: cell-based or functional assay
T3 peptide: AA

[19] = target: T4, Met-Met; experiment: cell-based or functional assay
T4 peptide: MM

[20] = target: T5, Ala-Ala-Ala; experiment: cell-based or functional assay
T5 peptide: AAA

Molecule: CCSCC[C@H](NC(=O)[C@H](C)N)C(=O)O [Ala-Eth, L-alanyl-L-ethionine] (H-Ala-[hCys](Et)-OH)
- amount that inhibits root elongation of seedlings [1]: 0.038 µmol
- sensitivity to toxic dipeptide [2]: sensitive
- sensitivity or resistance to toxic compound [3]: restores sensitivity
- diameter of zone of inhibition ([3]; disk with 0.38 μmoles, lawn of 5×10^6 cells, 30° C., 1 to 2 days, mean ± standard error): 35.0 ± 1.0 millimeters
- diameter of zone of inhibition [4]: 33.5 ± 2.5 millimeters
- diameter of zone of inhibition [5]: 42.5 ± 2.5 millimeters
- amount that inhibits germination of seeds [6]: 0.038 µmol

B1: ATPTR2Ap protein (other)
chain: MSSIEEQITKSDSDFIISEDQSYLSKEKKADGSATINQADEQSSTDELQKSMSTGVLVNGDLYPSPTEEELATLPSVCGTIPWKAFIIIIVELCERFAYYGLTVPFQNYMQFGPKDATPGALNLGETGADGLSNFFTFWCYVTPVGAALIADQFLGRYNTIVCSAVIYFIGILILTCTAIPSVIDAGKSMGGFVVSLIIIGLGTGGIKSNVSPLMAEQLPKIPPYVKTKKNGSKVIVDPVVTTSRAYMIFYWTINVGSLSVLATTSLESTKGFVYAYLLPLCVFVIPLIILAVSKTAFTSTLLPPVPSLFVLVKCSSLLLKTNLISKKLNHLALLLLERYVKDQWDDLFIDELKRALRACKTFLFYPIYWVCYGQMTNNLISQAGQMQTGNVSNDLFQAFDSIALIIFIPICDNIIYPLLRKYNIPFKPILRITLGFMFATASMIYAAVLQAKIYQRGPCYANFTDTCVSNDISVWIQIPAYVLIAFSEIFASITGLEFAFTKAPPSMKSIITALFLFTNAFGAILSICISSTAVNPKLTWMYTGIAVTAFIAGIMFWVCFHHYDAMEDEQNQLEFKRNDALTKKDVEKEVHDSYSMADESQYNLEKANC
- inhibition of germination of A. thaliana seeds and of root elongation of seedlings [7]: 0.038 µmol
- inhibition of germination of A. thaliana seeds and of root elongation of seedlings [8]: 0.038 µmol
- diameter of the zone of inhibition, disk assay with 0.38 µmoles [9]: 0 mm
- diameter of the zone of inhibition, disk assay with 0.38 µmoles [10]: 0 mm
- diameter of the zone of inhibition, disk assay with 0.38 µmoles [11]: 0 mm
- diameter of the zone of inhibition, disk assay with 0.38 µmoles [12]: 0 mm
- diameter of the zone of inhibition, disk assay with 0.38 µmoles [13]: 37.5 mm
- diameter of the zone of inhibition, disk assay with 0.38 µmoles [14]: 35 mm
- diameter of the zone of inhibition, disk assay with 0.38 µmoles [15]: 45 mm
- diameter of the zone of inhibition, disk assay with 0.38 µmoles [16]: 35 mm
- diameter of the zone of inhibition, disk assay with 0.38 µmoles [17]: 37 mm
- reversal by a competitor peptide of the inhibition of A. thaliana root growth by Ala-Eth or Leu-Eth [18]: 0 % of control root growth
- reversal by a competitor peptide of the inhibition of A. thaliana root growth by Ala-Eth or Leu-Eth [19]: 40 % of control root growth
- reversal by a competitor peptide of the inhibition of A. thaliana root growth by Ala-Eth or Leu-Eth [20]: 0 % of control root growth
